For assay [1], the target named is T1, FcεRII (CD23) on IM9 cells (human) (UniProt P06734).
T1 sequence (looked up): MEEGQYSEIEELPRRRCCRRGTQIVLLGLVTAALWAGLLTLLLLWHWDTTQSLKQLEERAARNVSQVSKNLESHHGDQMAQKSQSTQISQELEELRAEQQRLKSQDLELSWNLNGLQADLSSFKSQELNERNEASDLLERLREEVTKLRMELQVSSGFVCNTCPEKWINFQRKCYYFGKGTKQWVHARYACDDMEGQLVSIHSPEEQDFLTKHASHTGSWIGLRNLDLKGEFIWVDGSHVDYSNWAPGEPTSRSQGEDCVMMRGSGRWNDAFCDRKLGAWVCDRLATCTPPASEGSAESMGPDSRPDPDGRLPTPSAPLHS
As to the kind of experiment: FACS, 1.65 ug/ml, IM9 cells.

Assay [2] has as its target FcεRI alpha chain on CHO 3D10 cells (UniProt P12319). Kind of assay: FACS, 1.65 ug/ml, CHO 3D10 cells.
Assay [3] has as its target T1, FcεRII (CD23) on IM9 cells (human). Kind of assay: FACS, 5 ug/ml, IM9 cells.
For assay [4] the target is unchanged. Kind of assay: FACS, 10 ug/ml, IM9 cells. Background: Flow cytometry measures light scatter and fluorescence of single cells or particles in a stream.
For assay [5] the target is unchanged. As to the kind of experiment: FACS, 0.1 ug/ml, IM9 cells.
Assay [6] shares this target. Kind of assay: FACS, 0.5 ug/ml, IM9 cells.
In assay [7] the target is FcεRI alpha chain on CHO 3D10 cells (UniProt P12319). As to the kind of experiment: FACS, 5 ug/ml, CHO 3D10 cells.
The target is the same in assay [8]. As to the kind of experiment: FACS, 10 ug/ml, CHO 3D10 cells.
Assay [9] shares this target. As to the kind of experiment: FACS, 0.1 ug/ml, CHO 3D10 cells.
Assay [10] shares this target. As to the kind of experiment: FACS, 0.5 ug/ml, CHO 3D10 cells.

Sequence of FcεRI alpha chain on CHO 3D10 cells (P12319 26-257 limits assumed): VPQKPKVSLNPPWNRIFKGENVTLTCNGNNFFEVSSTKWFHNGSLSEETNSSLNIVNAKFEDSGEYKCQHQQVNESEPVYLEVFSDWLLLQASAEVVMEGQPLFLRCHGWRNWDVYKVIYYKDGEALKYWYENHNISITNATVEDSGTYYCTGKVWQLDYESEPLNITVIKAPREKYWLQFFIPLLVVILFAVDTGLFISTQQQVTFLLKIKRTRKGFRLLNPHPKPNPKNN
Sequence of human IgE (U266 IgE) (P01854 whole entry): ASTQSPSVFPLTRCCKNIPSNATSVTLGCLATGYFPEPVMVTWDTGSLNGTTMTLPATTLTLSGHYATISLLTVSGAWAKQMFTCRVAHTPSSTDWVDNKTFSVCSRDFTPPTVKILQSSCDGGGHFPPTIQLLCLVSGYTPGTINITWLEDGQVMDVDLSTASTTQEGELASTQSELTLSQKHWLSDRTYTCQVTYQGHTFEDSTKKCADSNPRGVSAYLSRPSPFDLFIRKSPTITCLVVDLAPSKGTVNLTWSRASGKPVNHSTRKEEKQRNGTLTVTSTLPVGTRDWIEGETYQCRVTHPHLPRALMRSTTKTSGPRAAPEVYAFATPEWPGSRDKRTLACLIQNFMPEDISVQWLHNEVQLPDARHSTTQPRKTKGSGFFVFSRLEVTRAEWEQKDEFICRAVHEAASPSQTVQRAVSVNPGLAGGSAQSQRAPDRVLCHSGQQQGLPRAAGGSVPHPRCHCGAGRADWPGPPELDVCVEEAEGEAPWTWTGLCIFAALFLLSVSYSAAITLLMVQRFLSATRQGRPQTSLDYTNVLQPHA
Sequence of human IgE mutant 10 (T438A, T440A) (P01854 other isoform, or with tags, fused parts or gaps, stated change not applied): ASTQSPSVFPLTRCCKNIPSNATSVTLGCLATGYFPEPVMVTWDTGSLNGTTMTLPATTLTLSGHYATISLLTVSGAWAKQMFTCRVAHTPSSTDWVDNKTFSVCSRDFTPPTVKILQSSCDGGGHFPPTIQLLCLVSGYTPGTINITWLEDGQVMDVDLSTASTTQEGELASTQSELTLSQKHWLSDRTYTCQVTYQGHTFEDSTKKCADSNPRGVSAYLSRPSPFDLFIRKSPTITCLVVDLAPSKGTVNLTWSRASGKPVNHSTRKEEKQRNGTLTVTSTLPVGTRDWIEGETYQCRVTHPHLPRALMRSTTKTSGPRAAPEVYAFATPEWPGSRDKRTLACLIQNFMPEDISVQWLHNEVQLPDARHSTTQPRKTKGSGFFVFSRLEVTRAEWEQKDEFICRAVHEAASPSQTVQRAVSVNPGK
Sequence of human IgE mutant 2 (loop BC exchanged) (P01854 other isoform, or with tags, fused parts or gaps, change not shown): as the sequence (P01854 other isoform, or with tags, fused parts or gaps, stated change not applied) above
Sequence of human IgE mutant 3 (loop CD exchanged) (P01854 other isoform, or with tags, fused parts or gaps, change not shown): as the sequence (P01854 other isoform, or with tags, fused parts or gaps, stated change not applied) above
Sequence of human IgE mutant 9 (N403A, T405A) (P01854 other isoform, or with tags, fused parts or gaps, stated change not applied): as above
Sequence of human IgE mutant 5 (loop FG exchanged) (P01854 other isoform, or with tags, fused parts or gaps, change not shown): as the sequence (P01854 other isoform, or with tags, fused parts or gaps, stated change not applied) above
Sequence of human IgE mutant 11 (Q455A, R457A, T459A) (P01854 other isoform, or with tags, fused parts or gaps, stated change not applied): as above
Sequence of human IgE mutant 6 (β-strand D exchanged) (P01854 other isoform, or with tags, fused parts or gaps, change not shown): as the sequence (P01854 other isoform, or with tags, fused parts or gaps, stated change not applied) above
Sequence of human IgE mutant 12 (S471A, T473A) (P01854 other isoform, or with tags, fused parts or gaps, stated change not applied): as above
Sequence of human IgE mutant 8 (T387A, T389A) (P01854 other isoform, or with tags, fused parts or gaps, stated change not applied): as above
Sequence of human IgE mutant 13 (Fcε2: 329-331 and 334-336 to Ala) (P01854 other isoform, or with tags, fused parts or gaps, change not shown): as the sequence (P01854 other isoform, or with tags, fused parts or gaps, stated change not applied) above
Sequence of human IgE mutant 1 (loop AB exchanged for human IgG1 loop) (P01854 other isoform, or with tags, fused parts or gaps, change not shown): as the sequence (P01854 other isoform, or with tags, fused parts or gaps, stated change not applied) above
Sequence of human IgE mutant 7 (383-385 RKS to AAA) (P01854 other isoform, or with tags, fused parts or gaps, change not shown): as the sequence (P01854 other isoform, or with tags, fused parts or gaps, stated change not applied) above
Sequence of human IgE mutant 4 (loop EF exchanged) (P01854 other isoform, or with tags, fused parts or gaps, change not shown): as the sequence (P01854 other isoform, or with tags, fused parts or gaps, stated change not applied) above

The substance “human IgE mutant 3 (loop CD exchanged) (from UniProt P01854 1-428) (antibody)” came in with a % IM9 (+) in assay [1] of 1.2%. In [2], this substance gave a % CHO 3D10 (+) of 32.3%.
The matching figures for “human IgE mutant 6 (β-strand D exchanged) (from UniProt P01854 1-428) (antibody)”: 71.6% and 1.4%.
The matching figures for “human IgE mutant 2 (loop BC exchanged) (from UniProt P01854 1-428) (antibody)”: 48.9% and 34.3%.
With “human IgE mutant 10 (T438A, T440A) (from UniProt P01854 1-428) (antibody)”, the % IM9 (+) in [1] worked out at 84.8%. In [2], this substance displayed a % CHO 3D10 (+) of 67.5%.
The matching figures for “human IgE mutant 13 (Fcε2: 329-331 and 334-336 to Ala) (from UniProt P01854 1-428) (antibody)”: 96.1% and 85.7%.
The matching figures for “human IgE mutant 4 (loop EF exchanged) (from UniProt P01854 1-428) (antibody)”: 9.2% and 4.9%.
The matching figures for “human IgE mutant 11 (Q455A, R457A, T459A) (from UniProt P01854 1-428) (antibody)”: 61.5% and 70.8%.
As to “human IgE mutant 5 (loop FG exchanged) (from UniProt P01854 1-428) (antibody)”, in [1], the % IM9 (+) stood at 73.9%. Besides, in [2], the % CHO 3D10 (+) was determined as 60.5%.
The matching figures for “human IgE mutant 12 (S471A, T473A) (from UniProt P01854 1-428) (antibody)”: 90.3% and 84.7%.
In assay [1], “human IgE mutant 8 (T387A, T389A) (from UniProt P01854 1-428) (antibody)” displayed a % IM9 (+) of 16.3%. The substance further showed a % CHO 3D10 (+) in assay [2] of 70.3%.
For the substance “human IgE (U266 IgE) (from UniProt P01854 1-546) (antibody)”, the % IM9 (+) came out at 82.6% in [3], 92.5% in assay [4], 1.7% in assay [5] and 4.6% in assay [6]. The % CHO 3D10 (+) was 89.9% in [7], 90.3% in assay [8], 15.8% in [9] and 59.6% in [10].
With “human IgE mutant 9 (N403A, T405A) (from UniProt P01854 1-428) (antibody)”, the % IM9 (+) in assay [1] came out at 94.3%. In assay [2], this substance showed a % CHO 3D10 (+) of 84.2%.
The matching figures for “human IgE mutant 1 (loop AB exchanged for human IgG1 loop) (from UniProt P01854 1-428) (antibody)”: 4.3% and 1.7%.
The matching figures for “human IgE mutant 7 (383-385 RKS to AAA) (from UniProt P01854 1-428) (antibody)”: 4.6% and 76.4%.

These data come from patent US20030044858A1.
